Experimental findings from patent publication US20250325672A1 are described below.

Non-standard residues stand in square brackets, D forms with d. No end group written: not given here. Sar = CNCC(=O)O

The target of assay [1] is COVID-19 S1 Spike Protein Mutant A262S (SARS-CoV-2), P0DTC2. Description: FP direct binding.
Assay [2] deals with COVID-19 S1 Spike Protein Mutant P272L (SARS-CoV-2), P0DTC2. Description: FP direct binding.
Assay [3] has as its target wild-type (WT) S1 domain of the SARS-COV-2 Spike Protein (ACROBiosystems, S1N-C82E8) (SARS-CoV-2), P0DTC2. Description: FP direct binding.
Assay [4] concerns the target Biotinylated 2019-nCoV (COVID-19) S1 protein (16-685), His, Avitag (SARS-CoV-2), P0DTC2. The assay is described as follows: SPR, Biacore T200, geomean. In general terms: In SPR one partner is held on a chip, and binding of the other changes the refractive index at the surface.
For assay [5], the target named is COVID-19 S1 Spike Protein Mutant A475V (SARS-CoV-2), P0DTC2. The assay is described as follows: FP direct binding.
The target of assay [6] is COVID-19 S1 Spike Protein Mutant E484K (SARS-CoV-2), P0DTC2. The assay is described as follows: FP direct binding.
In assay [7] the target is COVID-19 S1 Spike Protein Mutant F490L (SARS-CoV-2), P0DTC2. The assay is described as follows: FP direct binding.
The target in assay [8] is COVID-19 S1 Spike Protein Mutant G476S (SARS-CoV-2), P0DTC2. The assay is described as follows: FP direct binding.
Assay [9] concerns the target COVID-19 S1 Spike Protein Mutant K417N, E484K, N501Y (SARS-CoV-2), P0DTC2. Description: FP direct binding.
Assay [10] deals with COVID-19 S1 Spike Protein Mutant L452R (SARS-CoV-2), P0DTC2. Description: FP direct binding.
The target in assay [11] is COVID-19 S1 Spike Protein Mutant N439K (SARS-CoV-2), P0DTC2. The assay is described as follows: FP direct binding.
Assay [12] addresses COVID-19 S1 Spike Protein Mutant N501Y (SARS-CoV-2), P0DTC2. Description: FP direct binding.
In assay [13] the target is COVID-19 S1 Spike Protein Mutant V483A (SARS-CoV-2), P0DTC2. Description: FP direct binding.
Assay [14] concerns the target COVID-19 S1 Spike Protein Mutant Y453F (SARS-CoV-2), P0DTC2. The assay is described as follows: FP direct binding.
The target in assay [15] is COVID-19 S1 Spike Protein Mutant N354D, D364Y (SARS-CoV-2), P0DTC2. Description: FP direct binding.

B1: BCY15437 (peptide)
peptide: ACFDDWTCYIQMCA[Sar][Sar][Sar][Sar][Sar][Sar]K(Fl)
modifications: not fully specified; cysteine pairing not given here
By Kd is commonly meant the concentration at which binding is half-saturated. Lower therefore signals a tighter complex. As to B1, the Kd in [1] came to 0.015 µM; in assay [2] it was 0.017 µM.

B2: BCY16312 (peptide)
peptide: CPYVAGRGTCLLC
modifications: not checked
As for B2, in [3], the dissociation constant (Kd) was 0.759 µM.

B3: BCY16905 (peptide)
peptide: CRNPDNPVCRFYC
modifications: not checked
Molecule B3 came in with a Kd in [4] of 0.01 µM.

B4: BCY15299 (peptide)
peptide: ACEDHDWVYCSTCA[Sar][Sar][Sar][Sar][Sar][Sar][KFl]
modifications: cysteine pairing not given here
As to B4, the Kd is 0.71 µM in assay [5]; 0.475 µM in [6]; 0.441 µM in [7]; 0.944 µM in [8]; 0.676 µM in assay [9]; 0.548 µM in assay [10]. The Kd was determined as 0.531 µM in assay [11], 0.935 µM in assay [12], 0.988 µM in assay [13] and 0.579 µM in [14].

B5: BCY16287 (peptide)
peptide: ACDVCGLNAFNRCA[Sar][Sar][Sar][Sar][Sar][Sar][KFl]
modifications: cysteine pairing not given here
For the molecule B5, the dissociation constant (Kd) in [5] was 0.054 µM; in assay [6], 0.055 µM; in assay [7] it was 0.049 µM; in assay [8], 0.058 µM; in assay [10], 0.053 µM; in assay [15] it was 1.12 µM. In addition, the Kd in assay [13] came to 0.069 µM.

B6: BCY15324 (peptide)
peptide: ACRQSQCDWWAIRSFCA[Sar][Sar][Sar][Sar][Sar][Sar][KFl]
modifications: cysteine pairing not given here
On to B6, for which the dissociation constant (Kd) in assay [5] amounted to 0.629 µM; in assay [6], 1.49 µM; in [8] it was 0.588 µM; in [11], 0.529 µM; in [12] it was 1.26 µM; in assay [13], 0.751 µM. This molecule also showed a Kd in assay [14] of 0.366 µM.

B7: BCY16534 (peptide)
peptide: CASPDNPVCRFYC
modifications: not checked
As to B7, in [3], the dissociation constant Kd amounted to 0.381 µM.

B8: BCY16540 (peptide)
peptide: CYNHANPVCRYYC
modifications: not checked
For the molecule B8, the Kd in assay [3] was over 0.883 µM.
